Measured values taken from the nanobody polyreactivity screen of Harvey et al. (2022).

Test: yeast display, Sf9 membrane polyspecificity reagent, FACS + sequencing; frameworks hold sequencing errors
Procedure, shortened: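 Nanobodies came from a synthetic yeast display library in Saccharomyces cerevisiae BJ5465, induced with galactose for 36–48 hours and stained for 1 hour at 4 °C with 10% biotinylated, detergent-solubilized Sf9 membrane reagent. Cells were enriched on streptavidin microbeads and then FACS-sorted, with low and high (top ~1%) gates set on anti-HA fluorescence for expression and streptavidin fluorescence for reagent binding. Each polyreactivity label reflects the gate a clone came from. Genes were amplified by colony PCR, sequenced by MiSeq 2 × 250 and filtered by CDR length.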
For “QVQLVESGGGLVQAGGSLRLSCAASGITFGRHTMGWYRQAPGKERELVAAIDSGGNTYADSVKGRFTISRDNAKNTVYLQMNSLKPEDTAVYYCAVDGGEFSSYGYWGQGTQVTVSS”, the “polyreactivity (PSR sort gate)” value was “low polyreactivity”. For “QVQLVESGGGLVQAGGSLRLSCAASGITFGRNAMGWYRQAPGKERELVAAISRGGSTNYADSVKGRFTISRDNAKNTVYLQMNSLKPEDTAVYYGNARSWPHGSWIPIHRRSGYWGQGTQVTVSS”, the “polyreactivity (PSR sort gate)” value was “high polyreactivity”. For “QVQLVESGGGLVQAGGSLRLSCAASGITFGRNTMGWYRQAPGKERELVAAIDSGGNTYADSVKGRFTISRDNAKNTVYLQMNSLKPEDTAVYYCAVDGGEFSSSGYWGQGTQVPVSS”, the “polyreactivity (PSR sort gate)” value was “low polyreactivity”. For “QVQLVESGGGLVQAGGSLRLSCAASGITFGRNTMGWYRQAPGKERELVAAIDSGGNTYADSVKGRFTISRDNEKNTVYLQMNSLKPEDTAVYYCAVDCGEFSSYGYWGQGTQVTVSS”, the “polyreactivity (PSR sort gate)” value was “low polyreactivity”. With “QVQLVESGGGLVQAGGSLRLSCAASGITFGRYAMGWYRQAPGKERELVAAITWSGGSTYYADSVKGRFTISRDNSKNTVYLQMNSLKPEDTAVYYCAATWYPGRAGYYYWGQGTQVTVSS” the “polyreactivity (PSR sort gate)” value was “high polyreactivity”. With “QVQLVESGGGLVQAGGSLRLSCAASGITFGSYAMGRYRQAPGKERELVAAIDTSGDDTYYADSVKGRFTISRDNAKNTVYLQMNSLKPEDTAVYYCAAEFPSAEVDYWGQGTQVTVSS” the “polyreactivity (PSR sort gate)” value was “low polyreactivity”. For “QVQLVESGGGLVQAGGSLRLSCAASGITFGSYAMGWYRQAPGKEREFVAAISLSGGNTYYADSEKGRFTISRDNAKNPVYLQMNSLKPEDTAVYYCAADPFSSYYKMEYWGQGTQVTVSS”, the “polyreactivity (PSR sort gate)” value was “high polyreactivity”. With “QVQLVESGGGLVQAGGSLRLSCAASGITFGSYDMGWYRQAPGKERELVAAIDSDGGTYYADSVKGRFTISRDNAKNTVYLQMNSLKPEDTAVYYCAALLRSFPPYSFYYWGQGTQVTVSS” the “polyreactivity (PSR sort gate)” value was “high polyreactivity”. For “QVQLVESGGGLVQAGGSLRLSCAASGITFGTYTMGWYRQAPGKERELVAAISRSGTGTYYADSVKGRFTISRDNAKNTVYLQMNSLKPEDTAVYYCAAAGYIYYGYEYLYGFEYWGQGTQVTVSS”, the “polyreactivity (PSR sort gate)” value was “high polyreactivity”. For “QVQLVESGGGLVQAGGSLRLSCAASGITFGVYAMGWYRQAPGKERELVAAISSGDSTYYADSVKGRFTISRDNAKNTVYLQMNSLKPEDTAVYYCNAYYGVFYWDAEYGYDYWGQGTQVTVSS”, the “polyreactivity (PSR sort gate)” value was “high polyreactivity”. For “QVQLVESGGGLVQAGGSLRLSCAASGITFGWYAMGWYRQAPGKERELVAAISGRGGRTYYADSVKGRFKISRDNAKNTVYLQMNSLKPEDTAVYYCAARARRWSYITGSYVLIEYEYWGQGTQVTVSS”, the “polyreactivity (PSR sort gate)” value was “high polyreactivity”. For “QVQLVESGGGLVQAGGSLRLSCAASGITFGWYAMGWYRQAPGKERELVAAISGRGGRTYYADSVKGRFTISRDNAKYTVYLQMNSLKPEVTAVYYCAARARRWSYITGSYVLIEYEYWGQGTQVTVSS”, the “polyreactivity (PSR sort gate)” value was “high polyreactivity”. In the case of “QVQLVESGGGLVQAGGSLRLSCAASGITFGYNAMGWYRQAPGKERELVASISYSGDSTYYADSVKGRFTISRDNAKNTVYLQMNSLKPEDTAVYYCNVRNRPGGEINDYDYWGQGTQVTVSS”, the “polyreactivity (PSR sort gate)” value is reported as “low polyreactivity”. For “QVQLVESGGGLVQAGGSLRLSCAASGITFGYNAMGWYRQAPGTEREFVAGISWSGGSTYYADSVKGRFTISRDNAKNTVYLQMNSLKPEDTAVYYCAKLARGGWYGGGRSLSYGYWGQGTQVTVSS”, the “polyreactivity (PSR sort gate)” value was “high polyreactivity”. For “QVQLVESGGGLVQAGGSLRLSCAASGITFGYYAMGWYRQAPGKEREMVAAISFTGASTYYADSVKGRFTISRDNAKNTVYLQMNSLKPEDTAVYYCAADPYVPYQDFLSGFDYWGQGTQVTVSS”, the “polyreactivity (PSR sort gate)” value was “low polyreactivity”. For “QVQLVESGGGLVQAGGSLRLSCAASGITFGYYDMGWYRQAPGKERELVASISSGGNTNYADSVKGRFTISRDNAKNTVYLQMNSLKPEDTAVYYCNVRYWGFYDYDYWGQGTQVTVSS”, the “polyreactivity (PSR sort gate)” value was “low polyreactivity”. For “QVQLVESGGGLVQAGGSLRLSCAASGITFHKYAMGWYRQAPGKERELVAAISSGGGTYYADSVKGRFTISRDNAKNTVYLQMNSLKPEDTAVYYCNADIEWLWVRYDYWGQGTQVTVSS”, the “polyreactivity (PSR sort gate)” value was “high polyreactivity”. For “QVQLVESGGGLVQAGGSLRLSCAASGITFIGYPMGWYRQAPGKERELVASITSGANTNYADSVKGRFTISRDNAKNTVYLQMNSLKPEDTAVYYCAAPEHGTYANILGEPLDYWGQGTQVTVSS”, the “polyreactivity (PSR sort gate)” value was “low polyreactivity”. In the case of “QVQLVESGGGLVQAGGSLRLSCAASGITFIKNAMGWYRQAPGKERELVAAISRSGGRTYYADSVKGRFTISRDNAKNTVYLQMNSLKPEYTAVYYCAAVTQRSYIYDYWGQGTQVTVSS”, the “polyreactivity (PSR sort gate)” value is reported as “high polyreactivity”. In the case of “QVQLVESGGGLVQAGGSLRLSCAASGITFIRNGMGWYRQAPGKERELVAAISYTGARTYYADSVKGRFTISRDNAKNTVYLQMNSLKPEDNAVYYCAAEVRTRYLYSFRWYDYWGEGTQVTVSS”, the “polyreactivity (PSR sort gate)” value is reported as “low polyreactivity”. With “QVQLVESGGGLVQAGGSLRLSCAASGITFISYVMGWYRQAPWKERELLAAISKRGGSTYYADSVKGRFTISRDNAKNTVYLQMNSLKPEDTAVYYCAAKTIPWSVGYDYWGQGTQVTVSS” the “polyreactivity (PSR sort gate)” value was “high polyreactivity”. With “QVQLVESGGGLVQAGGSLRLSCAASGITFKFYAMGWYRQAPGKEREWVATISWSGGITYYADSVKGRFTISRDNAKNTVYLQMNSLKPEDTAVYYCAADGPFTPRYYYWGQGTQVTVSS” the “polyreactivity (PSR sort gate)” value was “low polyreactivity”. In the case of “QVQLVESGGGLVQAGGSLRLSCAASGITFKGYTMGWYRQAPGKEREFVAAISWGGGRTYYADSVKGRFTISRDNAKNTVYLQMNSLKPEDTAVYYCNGAPYTRALQGEFDYWGQGTQVTVSS”, the “polyreactivity (PSR sort gate)” value is reported as “high polyreactivity”. With “QVQLVESGGGLVQAGGSLRLSCAASGITFKLNAMGWYRQAPGKERELVAAISYNGVRTYYADSVKGRFTISRDNAKNTVYLQMNRLKPEDTAVYYCAALLRGQDRTMDYWGQGTQVTVSS” the “polyreactivity (PSR sort gate)” value was “high polyreactivity”. In the case of “QVQLVESGGGLVQAGGSLRLSCAASGITFKRYAMGWYRPAPGKERELVAAITISAGSTYYADSVKGRFTLSRDNAKNTVYLQMNSLKPEDTAVYYCAAESYGSWYYYWGQGTQVTVSS”, the “polyreactivity (PSR sort gate)” value is reported as “high polyreactivity”. For “QVQLVESGGGLVQAGGSLRLSCAASGITFKSYAMGWYRQAPGKERELVAAISRRGGSTYDADSVKGRFTISRDNAKNTVYLQMNSLKPEDTAVYYCNAAVGYYSYSYYTKVGVDYLGQGTQVTVSS”, the “polyreactivity (PSR sort gate)” value was “high polyreactivity”. In the case of “QVQLVESGGGLVQAGGSLRLSCAASGITFKYAMGWYRQAPGKERELVAAISGGGRTNYADSVKGRFTISRDNAKNTVYLQMNSLKPEDTAVYYCAAQGSRWWGFDYWGQGTQVTVSS”, the “polyreactivity (PSR sort gate)” value is reported as “high polyreactivity”. In the case of “QVQLVESGGGLVQAGGSLRLSCAASGITFKYYAMGWYRQAPGKEREFVASISARGGGTYYADSVKGRFTISRDNAKNTVYLQMNSLKPEDTAVYYCAVDYRYGYFVYVHYEYWGQGTQVTVSS”, the “polyreactivity (PSR sort gate)” value is reported as “high polyreactivity”. With “QVQLVESGGGLVQAGGSLRLSCAASGITFLDYAMRWYRQAPGKERELVAAITKSVGSTYYADSVKGRFTISRDNAKNTVYLQMNSLKPEDTAVYYCAADPDSGQVPFDYWGQGTQVTVSS” the “polyreactivity (PSR sort gate)” value was “low polyreactivity”. For “QVQLVESGGGLVQAGGSLRLSCAASGITFLWNARGWYRQAPGKERELVAVISIGGSTYYADSVKGRFTISRDNAKNTVYLQMNSLKPEDTAVYYCAATEGPAYDYEYWGQGTQVTVSS”, the “polyreactivity (PSR sort gate)” value was “low polyreactivity”. In the case of “QVQLVESGGGLVQAGGSLRLSCAASGITFLYYAMGWYRQAPGQERELVAAITSSGGRTYYADSVKGRFTISRDNAKNTVYLQMNSLKPEDTAVYYCAADSRTYNGGYYWGQGTQVTVSS”, the “polyreactivity (PSR sort gate)” value is reported as “high polyreactivity”. With “QVQLVESGGGLVQAGGSLRLSCAASGITFMFYAMGWSRQAPGKVRELVAAISSSGGTTYYADSVKGRFTISRDNAKNTVYLQMNSLTPEDTAVYYCAARRVLASWYDYNYWGQGTQVTVSS” the “polyreactivity (PSR sort gate)” value was “high polyreactivity”. For “QVQLVESGGGLVQAGGSLRLSCAASGITFNGNAMGWYRQAPGKERELVAAITRTGTDTSYADSVKGRFTISRDNAKNTVYLQMNSLKPEDTAVYYCAAPPYNGYRYGTTGYYWGQGTQVTVSS”, the “polyreactivity (PSR sort gate)” value was “low polyreactivity”. For “QVQLVESGGGLVQAGGSLRLSCAASGITFNPNAMGWYRQAPGKERELVAVITYRGGSTYYADSVMGRFTISRDNAKNTVYLQMNSLKPADTAVYYCAAQYIGWHLYWYDYWGQGTQVTVSS”, the “polyreactivity (PSR sort gate)” value was “low polyreactivity”. For “QVQLVESGGGLVQAGGSLRLSCAASGITFNYYAMGWYRQAPGKERELVAAISLSGGRTRYADSVKGRFTISRDNAKNTVYLQMNSLKPEDTAVYYCAAYSFRYVPWPDGMGYWGQGTQVTVSS”, the “polyreactivity (PSR sort gate)” value was “high polyreactivity”. With “QVQLVESGGGLVQAGGSLRLSCAASGITFNYYAMGWYRQAPGKERELVAAISWSGDRTYYADTVKGRFTISRDNAKYTVYLQMNSLKPEDTAVYYCAAKSVGEGDYWGQGTQVTVSS” the “polyreactivity (PSR sort gate)” value was “low polyreactivity”. For “QVQLVESGGGLVQAGGSLRLSCAASGITFPDNAMGWSRQAPGKERELVAAITYSGGSTYYADSVKGRFTISRDNAKNTVYLQMNSLKPEDTAVYYCAADWYWSSSYSDWEDYWGQGTQVTVSS”, the “polyreactivity (PSR sort gate)” value was “low polyreactivity”. With “QVQLVESGGGLVQAGGSLRLSCAASGITFPGNAMGWYRQAPGKERELVAVISFGDGGTYYADSVKGRFTISRDNAKNTVYLQMNSLKPEDTAVYYCATDYQSTSVWGGHFVINPYDYWGQGTQVTVSS” the “polyreactivity (PSR sort gate)” value was “low polyreactivity”. In the case of “QVQLVESGGGLVQAGGSLRLSCAASGITFPGYAMGWYRQAPGKERELVAVIRKSGTSTGGNTYYADSVKGRFTISRDNAKNTVYLQMNSLKPEDTAVYYCAKKYVWTHNYWGQGTQVTVSS”, the “polyreactivity (PSR sort gate)” value is reported as “low polyreactivity”. In the case of “QVQLVESGGGLVQAGGSLRLSCAASGITFPINTMGWYRQAPGKERELVAGIDWTGGSTYYADSVKGRFTISRDNAKIPVYLLMNSLKPEHTAVYYCAKTRRRLLTRYDYWGQGTQVTVSS”, the “polyreactivity (PSR sort gate)” value is reported as “low polyreactivity”. In the case of “QVQLVESGGGLVQAGGSLRLSCAASGITFPLYAMGWYRQAPGKERELVAAISRRGGRTYADSVKGRFTISRDNAKNTVYLQMNSLKPEDTAVYYCAAKGYSYSRDFYSWGQGTQVTVSS”, the “polyreactivity (PSR sort gate)” value is reported as “high polyreactivity”. With “QVQLVESGGGLVQAGGSLRLSCAASGITFPRYVMGWYRQAPGKERELVAAISTSGGSTYYADSVKGRFTISRDNAKNTVYLQMNSLKPEDTAVYYCAALDIYSSTYPVEYDYWGQGTQVTVSS” the “polyreactivity (PSR sort gate)” value was “high polyreactivity”. For “QVQLVESGGGLVQAGGSLRLSCAASGITFPSYAMGWYRQAPGKERELVATISRGDSTYYADSVKGRFTISRDNAKNTVYLQMNSLKPEDTAVYYCATRAYRLDPLQHDYWGQGTQVTVSS”, the “polyreactivity (PSR sort gate)” value was “low polyreactivity”.
